Data as given in article PMC6254359, “A helical LC3-interacting region mediates the interaction between the retroviral restriction factor Trim5α and mammalian autophagy-related ATG8 proteins” (The Journal of Biological Chemistry, 2018).
Changes are numbered by the printed parent chain. In names and notes the source's numbering stands.

B1: Trim5α from Rhesus macaque, Bbox coiled-coil regions, residues 88–296 with the E120K/R121D mutation (domain or fragment, UniProt Q0PF16 88-296, looked up)
chain: PEEGQKVDHCARHGEKLLLFCQEDSKVICWLCKDSQEHRGHHTFLMEEVAQEYHVKLQTALEMLRQKQQEAEKLEADIREEKASWKIQIDYDKTNVSADFEQLREILDWEESNELQNLEKEEEDILKSLTKSETEMVQQTQYMRELISELEHRLQGSMMDLLQGVDGIIKRIENMTLKKPKTFHKNQRRVFRAPDLKGMLDMFRELTDA
B2: W196A RhT5 88–296 EK/RD (domain or fragment, Rhesus macaque, UniProt Q0PF16 88-296, looked up)
chain: B1 chain with W109A
B3: RhT5 88–296 EK/RD E192A (domain or fragment, Rhesus macaque, UniProt Q0PF16 88-296, looked up)
chain: B1 chain with E105A
B4: RhT5 88–296 EK/RD E192K (domain or fragment, Rhesus macaque, UniProt Q0PF16 88-296, looked up)
chain: B1 chain with E105K
B5: RhT5 88–296 EK/RD E206A (domain or fragment, Rhesus macaque, UniProt Q0PF16 88-296, looked up)
chain: B1 chain with E119A
B6: RhT5 88–296 EK/RD E206K (domain or fragment, Rhesus macaque, UniProt Q0PF16 88-296, looked up)
chain: B1 chain with E119K
B7: RhT5 88–296 EK/RD E197A (domain or fragment, Rhesus macaque, UniProt Q0PF16 88-296, looked up)
chain: B1 chain with E110A
B8: RhT5 88–296 EK/RD E198K (domain or fragment, Rhesus macaque, UniProt Q0PF16 88-296, looked up)
chain: B1 chain with E111K
B9: RhT5 88–296 EK/RD Q189A (domain or fragment, Rhesus macaque, UniProt Q0PF16 88-296, looked up)
chain: B1 chain with Q102A
B10: RhT5 88–296 EK/RD Q203A (domain or fragment, Rhesus macaque, UniProt Q0PF16 88-296, looked up)
chain: B1 chain with Q116A

Experiments:
GABARAPL1 = target: T1, GABARAPL1 (UniProt Q9H0R8 1-117); assay: AUC; sedimentation velocity, 20 μM RhT5 88–296 EK/RD with 0–320 μM LC3B or GABARAPL1; S value of the fast peak against concentration, one-site binding model; 20 °C; 10 mM Tris/HCl pH 8, 150 mM NaCl, 0.1 mM TCEP; settings: both partners purified
T1 construct: also called mATG8 isoform GABARAPL1

LC3B I23R = LC3B I23R (UniProt Q9GZQ8 2-119, Ile23 to arginine); assay: AUC; sedimentation velocity, c(s) analysis of equimolar mixtures, 20 μM each; 20 °C, 50,000 rpm; 10 mM Tris/HCl pH 8, 150 mM NaCl, 0.1 mM TCEP; shift of the fast-moving peak; settings: both partners purified
LC3B H27A = LC3B H27A (UniProt Q9GZQ8 2-119, His27 to alanine); assay: as above; settings: both partners purified
[1] = target: the molecule itself; assay: AUC; sedimentation velocity, c(s) analysis of each protein alone at 20 μM; 20 °C; 10 mM Tris/HCl pH 8, 150 mM NaCl, 0.1 mM TCEP
[2] = target: the molecule itself; assay: SEC-MALS + AUC; Trim5α mutants alone; SEC–MALLS on Superdex 75 Increase 10/300 in 10 mM Tris/HCl pH 7.8, 150 mM NaCl, 0.1 mM TCEP, 3 mM azide, and c(s) analysis of sedimentation velocity
[3] = target: autophagy-related protein LC3 B (LC3B), construct 2–119 (UniProt Q9GZQ8 2-119); assay: AUC; sedimentation velocity, c(s) analysis of equimolar mixtures, 20 μM each; 20 °C, 50,000 rpm; 10 mM Tris/HCl pH 8, 150 mM NaCl, 0.1 mM TCEP; shift of the fast-moving peak; settings: both partners purified

Binder	stoichiometry N [2]	binding result [3]	further results
B1	–	–	Kd (GABARAPL1): 78 ± 6 µM; binding result (LC3B I23R): binds; binding result (LC3B H27A): binds; stoichiometry N [1]: 2
B2	2	–	–
B3	2	–	–
B4	2	–	–
B5	2	–	–
B6	2	–	–
B7	2	binds	–
B8	2	binds	–
B9	2	binds	–
B10	2	binds	–
